According to US20150110781A1:
Positions count from the first letter of the chain named.

Key:
[1] = molecular target: CVS-11 rabies virus (rabies virus) (UniProt O92284); assay: cell-based or functional assay
[2] = molecular target: Inactivated Rabies Virus Vaccine (Rabipur®, Chiron Behring GmbH & Co.) (rabies virus); assay: ELISA, plate coated with 1/500-diluted Rabipur, anti-human IgG Fcγ-HRP detection
[3] = molecular target: Inactivated Rabies Virus Vaccine (Rabipur®, Chiron Behring GmbH & Co.) (rabies virus)

UniProt O92284, sequence (O92284 20-524): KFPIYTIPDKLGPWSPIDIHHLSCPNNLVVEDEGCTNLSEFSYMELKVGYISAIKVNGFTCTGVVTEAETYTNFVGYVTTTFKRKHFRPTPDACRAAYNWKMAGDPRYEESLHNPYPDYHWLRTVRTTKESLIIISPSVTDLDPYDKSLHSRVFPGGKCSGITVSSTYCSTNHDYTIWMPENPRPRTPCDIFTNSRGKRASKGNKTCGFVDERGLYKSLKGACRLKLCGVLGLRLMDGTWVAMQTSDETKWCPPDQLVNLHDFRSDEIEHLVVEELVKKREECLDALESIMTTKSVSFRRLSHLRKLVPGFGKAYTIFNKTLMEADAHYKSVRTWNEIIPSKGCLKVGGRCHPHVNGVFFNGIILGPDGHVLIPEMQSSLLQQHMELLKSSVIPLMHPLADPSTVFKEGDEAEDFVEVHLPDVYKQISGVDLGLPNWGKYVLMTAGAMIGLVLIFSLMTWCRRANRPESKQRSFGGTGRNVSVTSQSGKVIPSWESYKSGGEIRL

B1: Ch1A9 (antibody, V domains shown)
VH: EIQLQQTGPELVKPGASVKISCKASGYSFTDYIMLWVKQSHGKSLEWIGDIYPYYGSTSYNLKFKGKATLTVDKSSSTAYMQLNSLTSEDSAVYYCARQGGDGNYVLFDYWGQGTTLTVSS
VL: DIVMTQSQKFMSTSVGDRVSVTCKASQNVGTTVAWYQQKPGQSPKALIYSASYRYSGVPDRFTGSGSGTDFTLTISNVQSEDLAEYFCQQYNSYPFTFGSGTKLEIKR
- Neutralization potency (IU/mg), FAVN [1]: 533 IU/mg
- Neutralization potency (IU/mg), RFFIT [1]: 1260 IU/mg
- EC50 [2]: 0.052 µg/mL

B2: Hu1A9-1 (antibody, V domains shown)
VH: QVQLVQSGAEVKKPGASVKVSCKASGYSFTDYIMLWVRQAPGQRLEWIGDIYPYYGSTSYNLKFKGKATLTVDTSASTAYMELSSLRSEDTAVYYCARQGGDGNYVLFDYWGQGTLVTVSS
VL: DIQMTQSPSSLSASVGDRVTITCKASQNVGTTVAWYQQKPGKAPKALIYSASYRYSGVPSRFSGSGSGTDFTLTISSLQPEDFATYYCQQYNSYPFTFGQGTKLEIKR
- EC50 [2]: 0.025 µg/mL

B3: Hu1A9-2 (antibody, V domains shown)
VH: B2 VH
VL: B2 VL with A46V
- EC50 [2]: 0.016 µg/mL

B4: Ch2G11 (antibody, V domains shown)
VH: EVQLVESGGGLVKPGGSLILSCAASGFTFSGFAMSWVRQTPEKRLEWVATISSGGTYTYSPDSVMGRFTISRDNAKNTLYLQMSSLRSEDTAMYYCARRLRRNYYSMDYWGQGTSVTVSS
VL: DVVLTQAPLSLPVNIGDQASISCKSTKSLLNSDGFTYLDWYLQKPGQSPQLLIYLVSNRFSGVPDRFSGSGSGTDFTLKISRVEAEDLGIYFCFQSNYLPFTFGSGTKLEIKR
- IC50 [3]: 0.11 µg/mL
- Neutralization potency (IU/mg), FAVN [1]: 8310 IU/mg
- Neutralization potency (IU/mg), RFFIT [1]: 1260 IU/mg
